Assay results from patent US20110086770A1 (ANAPHORE, published 2011).
Residue numbers refer to the chain shown, from its start.

T1: recombinant human IL-23R/Fc chimera (R&D Systems) (human, UniProt Q5VWK5 24-353)
T1 construct: bought; also called human IL-23R/Fc fusion protein; rhIL23RFc
T1 sequence (looked up): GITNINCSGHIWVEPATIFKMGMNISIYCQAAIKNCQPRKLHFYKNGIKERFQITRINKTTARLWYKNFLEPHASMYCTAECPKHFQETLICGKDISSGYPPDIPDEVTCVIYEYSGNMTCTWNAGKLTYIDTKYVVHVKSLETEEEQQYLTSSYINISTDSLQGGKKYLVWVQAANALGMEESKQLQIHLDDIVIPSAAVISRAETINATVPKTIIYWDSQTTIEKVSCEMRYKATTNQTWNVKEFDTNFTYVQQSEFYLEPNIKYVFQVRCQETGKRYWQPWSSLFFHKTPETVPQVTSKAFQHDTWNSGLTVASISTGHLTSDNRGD

B1: 105-08-1D1 ATRIMER (designed binder)
chain: EPPTQKPKKIVNAKKDVVNTKMFEELKSRLDTLAQEVALLKEQQALQTVCLKGTKVHMKCFLAFTQTKTFHEASEDCISRGGTLSTPQTGSENDALYEYLRQSVGNEAEIWLGLNGSALTDTWVDMTGARIAYKNWETEITAQPDGGWGYFGENCAVLSGAANGKWFDKRCRDQLPYICQFGIV
B2: 105-20-1B3 ATRIMER (designed binder)
chain: B1 chain with D121N, W148F
notes: not shown: C-terminal tag: Myc/His6 (pANA4) or HA-StrepII (pANA10); A Ser left at the ompA junction may also sit at the N-terminus
B3: 105-08-2A1 ATRIMER (designed binder)
chain: B1 chain with A118M, L119R
B4: 105-08-2F6 ATRIMER (designed binder)
chain: B1 chain with L119Y, D121N, W148F
notes: not shown: C-terminal tag: His/Myc (pANA4) or HA-StrepII (pANA10)
B5: 105-20-1H7 ATRIMER (designed binder)
chain: B1 chain with L119G, D121N, W148F
B6: 105-08-1G9 ATRIMER (designed binder)
chain: B1 chain with A118P, L119K, W148F
notes: as for B4
B7: 105-08-2G7 ATRIMER (designed binder)
chain: B1 chain with A118P, L119K, D121G, W148F
notes: as for B4
B8: 105-08-1D10 ATRIMER (designed binder)
chain: B1 chain with L119R, D121G
notes: as for B4
B9: 105-08-2C12 ATRIMER (designed binder)
chain: B1 chain with A118Q, L119R, W148F
modifications: Homotrimer of the given chain (ATRIMER complex).
B10: 105-20-2G12 ATRIMER (designed binder)
chain: B1 chain with A118P, L119R, D121N, W148F
notes: as for B2
B11: 105-08-2E12 ATRIMER (designed binder)
chain: B1 chain with A118G
B12: 105-20-1B4 ATRIMER (designed binder)
chain: B1 chain with A118S, L119R, D121N
modifications: Homotrimer of the given chain (ATRIMER complex).
B13: 105-08-2D2 ATRIMER (designed binder)
chain: B1 chain with L119R, D121G, W148F
modifications: Forms a homotrimer (ATRIMER) through the tetranectin coiled coil; one protomer is given.
notes: not shown: C-terminal tag
B14: 105-08-2C11 ATRIMER (designed binder)
chain: B1 chain with A118L, L119K, D121Q
B15: 105-08-2H11 ATRIMER (designed binder)
chain: B1 chain with A118P, L119R
B16: 105-20-1A6 ATRIMER (designed binder)
chain: B1 chain with L119K, D121G
notes: as for B4
B17: 105-08-2G6 ATRIMER (designed binder)
chain: B1 chain with A118L
notes: as for B4
B18: 105-08-1D3 ATRIMER (designed binder)
chain: B1 chain with A118K, L119V, D121E, W148F
notes: not shown: C-terminal purification tag: Myc/His6 (pANA4) or HA-StrepII (pANA10)
B19: 105-20-2C4a ATRIMER (designed binder)
chain: B1 chain with L119K
notes: as for B4
B20: 105-08-2G4 ATRIMER (designed binder)
chain: B1 chain with A118P, L119R, D121G, W148F
notes: as for B4
B21: 105-08-2H2 ATRIMER (designed binder)
chain: B1 chain with A118P, L119T
B22: 105-08-2B3 ATRIMER (designed binder)
chain: B1 chain with L119I, D121N
B23: 105-08-2G1 ATRIMER (designed binder)
chain: B1 chain with A118P, L119K, D121H, W148F
B24: 105-08-1D2 ATRIMER (designed binder)
chain: B1 chain with A118P, L119V, W148F
modifications: Forms a homotrimer (ATRIMER) through the tetranectin coiled coil; one protomer is given.
notes: not shown: C-terminal tag
B25: 105-61-4G5 ATRIMER (designed binder)
chain: B1 chain with A118P, D121N, W148F, Y150V
notes: as for B2
B26: 105-20-2C7 ATRIMER (designed binder)
chain: B1 chain with A118V, L119T, W148F
B27: 105-08-2H12 ATRIMER (designed binder)
chain: B1 chain with A118P, L119R, D121E, W148F
modifications: Homotrimer of the given chain (ATRIMER complex).
B28: 105-59-3B5 ATRIMER (designed binder)
chain: B1 chain with A118P, L119I, W148F, Y150V
notes: as for B18
B29: 105-08-2H10 ATRIMER (designed binder)
chain: B1 chain with A118N, L119H, W148F
notes: as for B4
B30: 105-61-4G3 ATRIMER (designed binder)
chain: B1 chain with A118L, L119R, W148F, Y150V
notes: as for B18
B31: 105-08-2C9 ATRIMER (designed binder)
chain: B1 chain with A118T, D121N
notes: as for B4
B32: 105-20-1H1 ATRIMER (designed binder)
chain: B1 chain with A118P, D121N
B33: 105-08-1G2 ATRIMER (designed binder)
chain: B1 chain with A118S, L119K, D121N
notes: as for B4
B34: 105-08-2C1 ATRIMER (designed binder)
chain: B1 chain with A118S
B35: 105-78-2D1 ATRIMER (designed binder)
chain: B1 chain with A118L, L119R, D121H, W148F, Y150V
notes: as for B2
B36: 105-78-2E6 ATRIMER (designed binder)
chain: B1 chain with A118L, L119R, D121N, W148F, Y150V
notes: as for B18
B37: 105-20-2F10 ATRIMER (designed binder)
chain: B1 chain with L119R, W148F
modifications: Forms a homotrimer (ATRIMER) through the tetranectin coiled coil; one protomer is given.
notes: not shown: C-terminal tag
B38: 105-08-2C4 ATRIMER (designed binder)
chain: B1 chain with A118L, D121N, W148F
modifications: Homotrimer of the given chain (ATRIMER complex).
B39: 105-08-2H4 ATRIMER (designed binder)
chain: B1 chain with A118V, L119R, W148F
B40: 105-08-2G2 ATRIMER (designed binder)
chain: B1 chain with L119I
B41: 105-08-2C8 ATRIMER (designed binder)
chain: B1 chain with A118W
B42: 105-59-3A5 ATRIMER (designed binder)
chain: B1 chain with A118L, D121N, W148F, Y150V
notes: as for B2
B43: 105-08-2C6 ATRIMER (designed binder)
chain: B1 chain with A118Q, L119R
B44: 105-08-1D12 ATRIMER (designed binder)
chain: B1 chain with A118V, W148F
B45: 105-08-2C10 ATRIMER (designed binder)
chain: B1 chain with A118L, W148F, Y150V
notes: as for B18
B46: 105-20-2G5 ATRIMER (designed binder)
chain: B1 chain with A118R, L119R
notes: as for B4
B47: 105-20-2C11 ATRIMER (designed binder)
chain: B1 chain with A118V, L119R
B48: 105-08-2G10 ATRIMER (designed binder)
chain: B1 chain with A118P, W148F
B49: 105-08-2H3 ATRIMER (designed binder)
chain: B1 chain with A118S, D121N
modifications: Homotrimer of the given chain (ATRIMER complex).
B50: 105-08-2H6 ATRIMER (designed binder)
chain: B1 chain with A118P, L119V, D121G, W148F
B51: 105-08-1G12 ATRIMER (designed binder)
chain: B1 chain with A118L, L119R, D121G
B52: 105-20-2C4b ATRIMER (designed binder)
chain: B1 chain with A118V, L119K
modifications: Forms a homotrimer (ATRIMER) through the tetranectin coiled coil; one protomer is given.
notes: not shown: C-terminal tag

target: T1, recombinant human IL-23R/Fc chimera …; experiment: competition ELISA against IL-23
Protocol: Assays were performed generally as follows. Individual wells in Immulon HB2 plates were incubated overnight at 4° C. with 100 μL PBS containing 100 ng of an anti-human IgG Fc (R&D MAB 110 clone 97924). Plates were washed five times with PBS/0.05% Tween 20, and wells were incubated for 1.5 h at RT with 100 μL each of PBS containing 50 ng of recombinant human IL-23R/Fc. […] Competitor was included at a final concentration of 1 μg/mL. After incubation, plates were washed as described and wells were incubated for 40 min at RT with 100 μL each of PBS containing a 1:5000 dilution of streptavidin-HRP conjugate (Pierce catalog no. 21130). After washing, wells were incubated with 100 μL each of TMB (BioFX Lab catalog no. TMBH-1000-0) for up to 30 min at RT. Reactions were stopped with an equal volume of 0.2 M sulfuric acid.

Row | Ratio IC50 to 056-53.H4E IC50 [ratio] | Binder
1 | 3.6 | B1
2 | 1.2 | B2
3 | 5 | B3
4 | 2.4 | B4
5 | 2.1 | B5
6 | 2.4 | B6
7 | 2.5 | B7
8 | 5.5 | B8
9 | 3.3 | B9
10 | 1 | B10
11 | 9.1 | B11
12 | 3 | B12
13 | 4.1 | B13
14 | 9.1 | B14
15 | 4.3 | B15
16 | 6.6 | B16
17 | 5.2 | B17
18 | 0.4 | B18
19 | 2.9 | B19
20 | 2.5 | B20
21 | 4 | B21
22 | 3.4 | B22
23 | 2.2 | B23
24 | 4.3 | B24
25 | 1 | B25
26 | 3.5 | B26

Row | Ratio IC50 to 056-53.H4E IC50 [ratio] | Binder
27 | 3.3 | B27
28 | 0.8 | B28
29 | 6.5 | B29
30 | 0.8 | B30
31 | 5.3 | B31
32 | 1.8 | B32
33 | 5.5 | B33
34 | 3.6 | B34
35 | 1.3 | B35
36 | 1 | B36
37 | 4.2 | B37
38 | 2.9 | B38
39 | 5 | B39
40 | 3.8 | B40
41 | 8.4 | B41
42 | 1.2 | B42
43 | 3.6 | B43
44 | 4.6 | B44
45 | 0.9 | B45
46 | 5.3 | B46
47 | 4.8 | B47
48 | 1.8 | B48
49 | 2.9 | B49
50 | 2 | B50
51 | 13.2 | B51
52 | 4.2 | B52
